The values that follow come from patent US20200216494A1 (ROYAL MELBOURNE INSTITUTE OF TECHNOLOGY, published 2020).

The assay addresses T1, NOX2 (catalytic subunit of NOX2 NADPH oxidase) (mouse, UniProt Q61093 2-570).
T1 construct: whole, on cells; Endogenous protein in mouse alveolar macrophages, BMDMs and RAW264.7 cells; also called gp91phox; CYBB
T1 sequence (looked up): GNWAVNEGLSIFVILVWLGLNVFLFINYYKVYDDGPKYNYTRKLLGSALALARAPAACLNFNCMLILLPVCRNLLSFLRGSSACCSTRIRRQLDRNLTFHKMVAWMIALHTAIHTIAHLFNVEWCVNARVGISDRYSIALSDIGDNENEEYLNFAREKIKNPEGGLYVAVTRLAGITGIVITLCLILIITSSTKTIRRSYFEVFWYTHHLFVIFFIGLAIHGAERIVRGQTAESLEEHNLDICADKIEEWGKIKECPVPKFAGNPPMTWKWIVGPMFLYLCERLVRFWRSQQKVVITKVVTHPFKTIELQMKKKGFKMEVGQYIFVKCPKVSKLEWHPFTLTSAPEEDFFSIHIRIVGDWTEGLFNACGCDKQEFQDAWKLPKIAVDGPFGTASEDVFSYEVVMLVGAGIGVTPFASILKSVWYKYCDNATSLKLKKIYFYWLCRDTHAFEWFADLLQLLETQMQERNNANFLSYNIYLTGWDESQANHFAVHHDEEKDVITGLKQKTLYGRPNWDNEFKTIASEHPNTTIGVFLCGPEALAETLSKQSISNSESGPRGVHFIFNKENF
Briefly: confocal immunofluorescence of NOX2 and p47phox association (NOX2 oxidase assembly) in HKx31-infected mouse macrophages.

B1: p47phox regulatory subunit of NOX2 oxidase (other, mouse, UniProt Q09014 1-390, looked up)
chain: MGDTFIRHIALLGFEKRFIPSQHYVYMFLVKWQDLSEKVVYRKFTEIYEFHKMLKEMFPIEAGEIHTENRVIPHLPAPRWFDGQRAAESRQGTLTEYFNGLMGLPVKISRCPHLLDFFKVRPDDLKLPTDSQAKKPETYLVPKDGKNNVADITGPIILQTYRAIADYEKSSGTEMTVATGDVVDVVEKSESGWWFCQMKTKRGWVPASYLEPLDSPDEAEDPDPNYAGEPYVTIKAYAAVEEDEMSLSEGEAIEVIHKLLDGWWVVRKGDITGYFPSMYLQKAGEEITQAQRQIRGRGAPPRRSTIRNAQSIHQRSRKRLSQDTYRRNSVRFLQQRRRPGRPGPLSTDGTKDNPSTPRVKPQPAVPPRPSSDLILHRCTESTKRKLTSAV
notes: whole, on cells; Cytosolic subunit, endogenous in the cells
For B1, the binding result was “binds”.
